The target in the data set is T1, CbAgoM (delA2;D463R;Y473A;K477C;T491H;T494S;K520G;A542D;A612D;del738-749).
T1 chain: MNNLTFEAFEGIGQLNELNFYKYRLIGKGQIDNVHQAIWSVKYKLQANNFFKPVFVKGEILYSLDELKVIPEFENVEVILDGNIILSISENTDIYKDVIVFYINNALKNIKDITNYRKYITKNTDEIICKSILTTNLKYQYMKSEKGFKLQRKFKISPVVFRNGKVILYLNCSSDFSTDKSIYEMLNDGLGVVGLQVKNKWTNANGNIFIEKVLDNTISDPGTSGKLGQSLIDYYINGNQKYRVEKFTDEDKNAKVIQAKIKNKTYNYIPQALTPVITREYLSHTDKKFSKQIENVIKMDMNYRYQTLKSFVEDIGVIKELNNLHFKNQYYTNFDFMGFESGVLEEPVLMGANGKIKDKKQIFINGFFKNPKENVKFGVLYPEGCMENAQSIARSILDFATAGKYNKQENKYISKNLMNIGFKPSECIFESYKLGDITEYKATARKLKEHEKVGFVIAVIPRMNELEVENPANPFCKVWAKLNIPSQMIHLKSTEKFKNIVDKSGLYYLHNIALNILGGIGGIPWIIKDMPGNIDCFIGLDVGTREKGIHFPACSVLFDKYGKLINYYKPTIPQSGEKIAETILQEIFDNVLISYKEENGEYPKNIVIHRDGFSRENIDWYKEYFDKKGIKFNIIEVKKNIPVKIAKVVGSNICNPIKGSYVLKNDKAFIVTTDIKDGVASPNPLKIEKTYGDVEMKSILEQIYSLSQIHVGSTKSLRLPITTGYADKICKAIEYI
Kind of data set: fluorescence polarization. For orientation: Fluorescence polarisation rises when a labelled molecule tumbles more slowly, as on binding a larger partner.

On to TGAGGTAGTAGGTTGTATAGT (ssDNA, 5'-phosphate) [gDNA 21 nt], for which the binding result was “binds”.
